Assay results from the supplement of paper PMC10065799, “High-throughput profiling of sequence recognition by tyrosine kinases and SH2 domains using bacterial peptide display” (eLife, 2023).

How the values were obtained:
[1] = molecular target: SHP2-C SH2; assay: SH2 binding enrichment of the phosphorylated peptide, bacterial display (enrichment ratio); higher = better substrate or ligand; peptides without Tyr show the background
[2] = molecular target: Grb2 SH2 (UniProt P62993); assay: as above
Chain of Grb2 SH2 (P62993 whole entry, looked up): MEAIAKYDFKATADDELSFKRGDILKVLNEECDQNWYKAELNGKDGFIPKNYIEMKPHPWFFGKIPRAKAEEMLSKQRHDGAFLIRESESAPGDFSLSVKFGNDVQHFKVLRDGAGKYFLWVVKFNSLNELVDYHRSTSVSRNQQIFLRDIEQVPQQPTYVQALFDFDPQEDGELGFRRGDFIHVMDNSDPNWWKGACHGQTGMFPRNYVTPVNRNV

[3] = molecular target: c-Src SH2; assay: as above
[4] = system: c-Src; assay: phosphorylation enrichment, bacterial display (enrichment ratio); higher = better substrate or ligand; peptides without Tyr show the background
[5] = molecular target: MERTK (UniProt Q12866); assay: as above
Chain of MERTK (Q12866 whole entry, looked up): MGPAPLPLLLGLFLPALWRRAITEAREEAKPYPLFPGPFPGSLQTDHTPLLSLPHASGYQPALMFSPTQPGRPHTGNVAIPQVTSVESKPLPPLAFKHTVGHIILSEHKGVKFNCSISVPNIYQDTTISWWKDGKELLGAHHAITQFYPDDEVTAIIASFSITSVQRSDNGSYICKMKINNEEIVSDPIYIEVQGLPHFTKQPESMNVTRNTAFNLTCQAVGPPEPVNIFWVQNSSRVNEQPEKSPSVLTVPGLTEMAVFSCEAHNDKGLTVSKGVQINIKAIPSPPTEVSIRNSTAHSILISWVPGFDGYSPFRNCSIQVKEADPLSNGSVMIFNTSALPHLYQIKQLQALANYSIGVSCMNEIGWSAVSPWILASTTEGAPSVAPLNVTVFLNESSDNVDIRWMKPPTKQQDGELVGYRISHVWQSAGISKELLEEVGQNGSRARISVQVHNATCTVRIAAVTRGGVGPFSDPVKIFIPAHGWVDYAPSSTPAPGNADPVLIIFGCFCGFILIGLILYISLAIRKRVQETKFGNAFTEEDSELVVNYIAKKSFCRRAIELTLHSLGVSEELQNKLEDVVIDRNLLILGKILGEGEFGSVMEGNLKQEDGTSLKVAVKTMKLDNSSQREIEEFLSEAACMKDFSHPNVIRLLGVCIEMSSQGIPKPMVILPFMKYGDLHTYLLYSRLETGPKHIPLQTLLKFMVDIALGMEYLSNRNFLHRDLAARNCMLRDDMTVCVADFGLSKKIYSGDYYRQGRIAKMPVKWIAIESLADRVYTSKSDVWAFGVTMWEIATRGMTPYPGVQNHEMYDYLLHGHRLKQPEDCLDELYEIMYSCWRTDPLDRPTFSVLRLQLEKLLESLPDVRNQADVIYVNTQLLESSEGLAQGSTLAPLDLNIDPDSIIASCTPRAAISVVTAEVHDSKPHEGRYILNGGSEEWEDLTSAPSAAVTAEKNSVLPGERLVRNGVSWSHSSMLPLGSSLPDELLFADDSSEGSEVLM

[6] = molecular target: EPHB2 (UniProt P29323); assay: as above
Chain of EPHB2 (P29323 whole entry, looked up): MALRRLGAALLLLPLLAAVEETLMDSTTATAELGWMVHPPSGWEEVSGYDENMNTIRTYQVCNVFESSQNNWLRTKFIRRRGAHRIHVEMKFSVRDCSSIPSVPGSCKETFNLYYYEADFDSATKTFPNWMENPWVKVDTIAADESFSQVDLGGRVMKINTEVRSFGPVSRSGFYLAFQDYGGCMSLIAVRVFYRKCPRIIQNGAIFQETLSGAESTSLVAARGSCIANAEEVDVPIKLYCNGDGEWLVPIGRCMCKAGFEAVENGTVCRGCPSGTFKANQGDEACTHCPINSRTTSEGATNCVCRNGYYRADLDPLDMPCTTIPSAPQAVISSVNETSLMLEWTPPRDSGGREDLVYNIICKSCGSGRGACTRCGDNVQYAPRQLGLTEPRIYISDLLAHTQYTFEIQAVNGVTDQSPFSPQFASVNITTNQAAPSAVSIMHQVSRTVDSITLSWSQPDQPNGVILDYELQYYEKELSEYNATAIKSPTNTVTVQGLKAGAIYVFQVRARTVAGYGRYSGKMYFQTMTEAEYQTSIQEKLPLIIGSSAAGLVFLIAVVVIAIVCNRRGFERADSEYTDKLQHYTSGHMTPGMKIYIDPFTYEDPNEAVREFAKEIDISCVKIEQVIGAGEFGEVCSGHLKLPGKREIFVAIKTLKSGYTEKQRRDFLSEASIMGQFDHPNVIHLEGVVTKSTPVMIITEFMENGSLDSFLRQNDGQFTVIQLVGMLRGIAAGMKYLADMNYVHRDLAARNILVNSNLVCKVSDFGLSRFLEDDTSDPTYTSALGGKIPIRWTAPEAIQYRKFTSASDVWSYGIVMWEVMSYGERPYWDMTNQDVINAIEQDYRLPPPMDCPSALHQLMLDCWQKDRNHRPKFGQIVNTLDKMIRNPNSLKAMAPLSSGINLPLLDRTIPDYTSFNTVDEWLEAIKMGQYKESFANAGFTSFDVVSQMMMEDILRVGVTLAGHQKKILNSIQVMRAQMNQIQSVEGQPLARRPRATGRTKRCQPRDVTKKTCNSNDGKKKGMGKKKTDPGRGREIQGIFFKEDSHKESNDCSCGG

[7] = molecular target: FGFR3 (UniProt P22607); assay: as above
[8] = system: Fer (mouse); assay: as above
[9] = molecular target: Fes (UniProt P07332); assay: as above
Chain of Fes (P07332 whole entry, looked up): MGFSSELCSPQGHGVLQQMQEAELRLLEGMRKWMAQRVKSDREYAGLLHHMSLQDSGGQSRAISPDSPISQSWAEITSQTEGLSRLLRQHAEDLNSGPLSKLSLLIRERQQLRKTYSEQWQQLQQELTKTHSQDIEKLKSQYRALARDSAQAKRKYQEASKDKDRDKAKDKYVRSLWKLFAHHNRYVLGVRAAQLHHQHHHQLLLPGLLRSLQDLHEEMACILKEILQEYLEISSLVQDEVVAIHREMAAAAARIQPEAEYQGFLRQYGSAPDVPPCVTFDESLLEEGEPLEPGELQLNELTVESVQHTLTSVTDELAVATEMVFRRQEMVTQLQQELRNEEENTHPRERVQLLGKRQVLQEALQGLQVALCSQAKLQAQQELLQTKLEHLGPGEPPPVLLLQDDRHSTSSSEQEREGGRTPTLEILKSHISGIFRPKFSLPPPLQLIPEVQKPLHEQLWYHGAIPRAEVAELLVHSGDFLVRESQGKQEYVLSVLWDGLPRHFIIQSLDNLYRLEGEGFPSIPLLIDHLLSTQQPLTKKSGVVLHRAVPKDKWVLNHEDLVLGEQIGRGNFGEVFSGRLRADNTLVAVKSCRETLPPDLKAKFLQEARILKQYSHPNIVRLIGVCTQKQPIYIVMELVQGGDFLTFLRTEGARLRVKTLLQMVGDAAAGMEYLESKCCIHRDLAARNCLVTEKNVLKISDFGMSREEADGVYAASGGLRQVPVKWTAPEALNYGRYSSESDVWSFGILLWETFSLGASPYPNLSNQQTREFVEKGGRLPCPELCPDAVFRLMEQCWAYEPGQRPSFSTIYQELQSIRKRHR

[10] = system: AncSZ; assay: as above
[11] = system: c-Abl (mouse); assay: as above
[12] = molecular target: EPHB1 (UniProt P54762); assay: as above
[13] = molecular target: Fyn (UniProt P06241); assay: as above
Chain of Fyn (P06241 whole entry, looked up): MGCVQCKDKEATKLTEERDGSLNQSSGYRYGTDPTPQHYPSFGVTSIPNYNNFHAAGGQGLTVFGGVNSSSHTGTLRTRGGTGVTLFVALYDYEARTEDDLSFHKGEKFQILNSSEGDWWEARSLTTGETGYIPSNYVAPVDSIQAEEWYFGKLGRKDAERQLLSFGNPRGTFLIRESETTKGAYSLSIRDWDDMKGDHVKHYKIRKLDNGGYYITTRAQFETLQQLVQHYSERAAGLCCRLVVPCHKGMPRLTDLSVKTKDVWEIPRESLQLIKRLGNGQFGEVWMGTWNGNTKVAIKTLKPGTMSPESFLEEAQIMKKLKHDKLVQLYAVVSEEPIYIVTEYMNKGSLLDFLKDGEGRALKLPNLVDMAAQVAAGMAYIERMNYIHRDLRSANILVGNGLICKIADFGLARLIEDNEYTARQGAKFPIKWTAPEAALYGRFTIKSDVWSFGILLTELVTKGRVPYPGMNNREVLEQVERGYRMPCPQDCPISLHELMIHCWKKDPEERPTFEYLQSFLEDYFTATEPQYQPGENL

[14] = molecular target: Hck (UniProt P08631); assay: as above
Chain of Hck (P08631 whole entry, looked up): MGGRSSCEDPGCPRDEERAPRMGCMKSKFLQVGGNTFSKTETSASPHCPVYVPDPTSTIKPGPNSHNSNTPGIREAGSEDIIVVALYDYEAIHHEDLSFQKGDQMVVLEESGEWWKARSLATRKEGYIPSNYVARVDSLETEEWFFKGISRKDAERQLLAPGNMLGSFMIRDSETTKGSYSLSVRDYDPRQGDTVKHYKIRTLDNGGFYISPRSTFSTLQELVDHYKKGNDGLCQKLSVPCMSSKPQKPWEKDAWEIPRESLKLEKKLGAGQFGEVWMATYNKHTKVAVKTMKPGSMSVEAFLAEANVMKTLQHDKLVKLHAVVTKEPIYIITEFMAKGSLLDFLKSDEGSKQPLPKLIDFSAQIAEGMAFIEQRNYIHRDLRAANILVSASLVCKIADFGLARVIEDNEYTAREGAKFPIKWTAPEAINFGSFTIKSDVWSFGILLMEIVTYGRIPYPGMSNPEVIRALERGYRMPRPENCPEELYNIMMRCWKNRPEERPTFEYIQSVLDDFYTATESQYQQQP

[15] = molecular target: Jak2 (UniProt O60674); assay: as above
[16] = molecular target: FGFR1 (UniProt P11362); assay: as above
Chain of FGFR1 (P11362 whole entry, looked up, the tested form may be a part): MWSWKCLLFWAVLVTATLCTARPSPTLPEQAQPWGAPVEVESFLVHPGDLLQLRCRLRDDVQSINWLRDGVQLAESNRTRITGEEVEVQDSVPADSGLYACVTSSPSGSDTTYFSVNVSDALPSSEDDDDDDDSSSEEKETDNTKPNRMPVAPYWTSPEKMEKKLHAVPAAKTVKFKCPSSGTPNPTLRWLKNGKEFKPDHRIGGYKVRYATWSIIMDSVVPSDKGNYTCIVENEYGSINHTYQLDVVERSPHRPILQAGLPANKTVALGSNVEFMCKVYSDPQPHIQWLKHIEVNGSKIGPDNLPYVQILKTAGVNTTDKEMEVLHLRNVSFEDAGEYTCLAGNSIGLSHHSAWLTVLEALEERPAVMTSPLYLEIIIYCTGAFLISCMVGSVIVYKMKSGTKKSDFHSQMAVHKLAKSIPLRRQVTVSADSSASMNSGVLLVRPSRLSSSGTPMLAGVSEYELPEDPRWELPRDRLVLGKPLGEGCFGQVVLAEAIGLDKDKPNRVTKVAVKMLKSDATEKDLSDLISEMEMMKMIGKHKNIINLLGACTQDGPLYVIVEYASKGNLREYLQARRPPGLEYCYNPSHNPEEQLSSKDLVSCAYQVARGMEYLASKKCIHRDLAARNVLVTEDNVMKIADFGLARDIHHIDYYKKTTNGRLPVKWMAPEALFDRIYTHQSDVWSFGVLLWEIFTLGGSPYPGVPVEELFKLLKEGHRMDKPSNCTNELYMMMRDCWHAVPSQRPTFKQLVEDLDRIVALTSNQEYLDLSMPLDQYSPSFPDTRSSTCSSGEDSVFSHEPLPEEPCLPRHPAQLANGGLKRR
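Wherever SH2 binding enrichment of the phosphorylated peptide, bacterial display is given: peptide library displayed on the E. coli surface as eCPX fusions, selected cells deep-sequenced, score is each peptide's frequency after selection divided by its frequency in the input.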
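Wherever phosphorylation enrichment, bacterial display is given: 11-residue human phosphosite peptides and single-mutation variants displayed on the E. coli surface, counted by deep sequencing, each peptide's frequency after selection divided by its frequency in the unselected input library; frequency after pTyr selection over input frequency; kinase dosed for 20-30% of maximal phosphorylation in three min.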

Sequence | SH2 binding enrichment [1] | SH2 binding enrichment [2] | SH2 binding enrichment [3] | phosphorylation enrichment [4] | phosphorylation enrichment [5] | phosphorylation enrichment [6] | phosphorylation enrichment [7] | phosphorylation enrichment [8] | phosphorylation enrichment [9] | phosphorylation enrichment [10] | phosphorylation enrichment [11] | phosphorylation enrichment [12] | phosphorylation enrichment [13] | phosphorylation enrichment [14] | phosphorylation enrichment [15] | phosphorylation enrichment [16]
AGITAYQSCLQ [ADGRA2_Y377] | 0.497 | 0.827 | 0.395 | 0.518 | 0.59 | 0.717 | 0.951 | 0.63 | 1.3 | 1.12 | 0.918 | 0.685 | 0.633 | 0.568 | 1.03 | 0.562
SLKAFYGEDAK [ALDH3A1_Y272_E270A] | 0.663 | 0.891 | 0.68 | 0.489 | 0.332 | 0.369 | 0.538 | 0.417 | 0.724 | 0.603 | 0.562 | 0.395 | 0.416 | 0.456 | 0.58 | 0.433
CTTILYNYMCN [TP53_Y234_H233L] | 1.9 | 1.78 | 2.4 | 1.24 | 2.36 | 0.766 | 0.894 | 1.2 | 1.06 | 1.18 | 0.615 | 0.958 | 0.745 | 1.14 | 1.16 | 0.94
LAARYYNWVCF [FLT4_Y1231_S1235C] | 0.752 | 4.36 | 1.07 | 0.512 | 1.04 | 0.615 | 1.94 | 1.39 | 1.51 | 1.37 | 0.977 | 0.899 | 0.777 | 0.588 | 1.11 | 1.96
MEVGQYIFVKC [CYBB_Y324] | 0.651 | 0.781 | 0.539 | 0.463 | 0.511 | 0.723 | 2.43 | 0.708 | 1.53 | 1.74 | 1.01 | 0.835 | 0.599 | 0.582 | 1.53 | 2.8
HSDFQYSQRSQ [PKP2_Y168_YF] | 0.832 | 0.99 | 0.581 | 0.747 | 0.602 | 0.782 | 0.608 | 0.733 | 1.02 | 0.997 | 0.942 | 0.752 | 0.844 | 0.718 | 0.952 | 0.931
ECKEAYHEGEC [PRKN_Y372] | 0.577 | 0.82 | 0.646 | 0.541 | 0.456 | 0.638 | 0.652 | 0.498 | 1.26 | 1.32 | 0.761 | 0.524 | 0.48 | 0.654 | 1.18 | 0.626
AVRYIYTIDGS [DCX_Y105_G100A] | 20.1 | 0.979 | 0.76 | 3.18 | 0.629 | 0.552 | 0.709 | 0.439 | 1.2 | 0.948 | 0.727 | 0.65 | 3.86 | 1.41 | 0.972 | 0.579
DYNPNYCFAGK [ALK_Y1096] | 0.788 | 0.799 | 0.532 | 0.63 | 0.906 | 1.07 | 0.778 | 0.735 | 1.03 | 1.82 | 0.812 | 2.62 | 0.607 | 0.563 | 0.873 | 0.641
FPAVGYHKPHI [IDS_Y225_L221P] | 0.826 | 0.823 | 0.91 | 0.41 | 0.374 | 0.467 | 0.565 | 0.436 | 0.601 | 0.638 | 0.602 | 0.393 | 0.472 | 0.394 | 0.625 | 0.412
PTTKTYFPHFY [HBA1_Y43_D48Y] | 1.25 | 0.771 | 0.73 | 0.56 | 0.508 | 0.735 | 1.14 | 0.825 | 0.873 | 0.782 | 0.785 | 0.46 | 0.884 | 0.535 | 0.974 | 0.628
CEAMEYLESKQ [BTK_Y511] | 0.553 | 0.676 | 0.402 | 0.839 | 0.688 | 0.811 | 1.01 | 0.788 | 1.95 | 1.94 | 1.36 | 0.882 | 0.557 | 0.751 | 1.89 | 0.655
RLLVVYPWTQR [HBB_Y36] | 2.05 | 1.99 | 1.41 | 0.53 | 0.523 | 0.632 | 0.722 | 0.5 | 1.06 | 1.09 | 0.77 | 0.553 | 0.574 | 0.497 | 0.967 | 0.591
RRIHSYRSHLW [VHL_Y112_G114S] | 0.822 | 0.574 | 0.57 | 0.439 | 0.718 | 2.19 | 0.778 | 0.507 | 1.17 | 0.576 | 0.395 | 0.81 | 0.833 | 0.601 | 0.487 | 1.25
SSSPTYPDLPF [GLI3_Y168] | 0.673 | 0.859 | 0.504 | 0.565 | 0.654 | 0.543 | 0.627 | 0.745 | 0.933 | 0.839 | 0.967 | 0.634 | 0.568 | 0.59 | 0.91 | 0.784
KKHFSYAWPFF [BRDT_Y291_YF] | 2.15 | 1.8 | 1.77 | 0.529 | 1.64 | 0.494 | 0.653 | 0.487 | 1.13 | 1.03 | 0.661 | 0.467 | 0.428 | 0.428 | 0.976 | 0.545
